In patent CN112592401A:

Biological target: 灭活非洲猪瘟病毒抗原 (非洲猪瘟全病毒)
Assay: ELISA with whole ASFV, as in Fig. 6 (scFv coated, inactivated ASFV captured)

B1: 抗非洲猪瘟病毒的ScFv抗体VH-VLλ11 (scFv)
scFv: MEVKLVESGGGLVQPGGSLRLSCVGSEYEFRGSLIHWVRQAPGKGLEWLATICTTDPITEYADSVKGRFTISRDSSQNTAYLQMDSLRGEDTARYYCGVAFSYGGGCHRMDLRGQGVEVVVGGGGSGGMSQTVIQEPAMSVSPGGTVTLTCAFSSGSESTRKYPIRFQQTPGQPPRLLIYHTNSRPTGVPSRFSGAISGNKAALTITGAQAEDEADYFCSLYIRTYNVPFGGGTHLTVL
- OD450nm: 1.12 OD450nm
